{"source": "the nanobody polyreactivity screen of Harvey et al. (2022)", "data": [{"assay": "yeast display, Sf9 membrane polyspecificity reagent, FACS + sequencing; frameworks hold sequencing errors", "outline": "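A synthetic nanobody library was expressed on Saccharomyces cerevisiae BJ5465 by galactose induction for 36–48 hours. The library was stained for 1 hour at 4 °C with 10% biotinylated, detergent-solubilized Sf9 membrane reagent and enriched with streptavidin microbeads before FACS. Low and high (top ~1%) gates were set on anti-HA fluorescence for expression and streptavidin fluorescence for reagent binding, and each polyreactivity label reflects the gate of origin.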", "values": [{"sequence": "QVQLVESGGGLVQAGGSLRLSCAASGFAFSHYAMGWYRQAPGKERELVAAISWGGGSTYYADSVKGRFTISRDNAKNTVYLQMNSLRPEDTAVYYCAASIWLRYHWGYDYWGQGTQVTVSS", "polyreactivity (PSR sort gate)": "high polyreactivity"}, {"sequence": "QVQLVESGGGLVQAGGSLRLSCAASGFAFSYYAMGWYRQAPGKEREFVASIDWSGGSTYYADSVKGRFTISRDNAKNTVFLQMNSLKPEDTAVYYCAAELDYFPGYDYWGQGTQVTVSS", "polyreactivity (PSR sort gate)": "low polyreactivity"}, {"sequence": "QVQLVESGGGLVQAGGSLRLSCAASGFFFEINAMGWYRQAPGKERELVAVITNSGGSTYYADSVKGRFTISRDNAKNTVYLQMNSLKPEDTAVYYCAADAVHYTNDWYDYWGQGTQVTVSS", "polyreactivity (PSR sort gate)": "low polyreactivity"}, {"sequence": "QVQLVESGGGLVQAGGSLRLSCAASGFFFSHYAMGWYRQAPGKERVFVATISKRGGSTTYADSVKGRFTISRDNAKNTVYLQMNSLKPEDTAVYYCAATYYRFPSLIAYVRYDYWGQGTQVTVSS", "polyreactivity (PSR sort gate)": "high polyreactivity"}, {"sequence": "QVQLVESGGGLVQAGGSLRLSCAASGFIDYDNAMGWYRQAPGKERELVAAITSGGSTYYADSVKGRFTISRDNAKNTVYLQMNSLKPEDTAVYYCARESGYRAYEIQFYYWGQGTQVTVSS", "polyreactivity (PSR sort gate)": "high polyreactivity"}, {"sequence": "QVQLVESGGGLVQAGGSLRLSCAASGFIFAANAMGWYRQAPGKEMELVARIRSTGRTSYADSVKGRFTISRDNAKNTVYLQMNSLKPEDTAVYYCATDYYRYRDYAYYWLDYNYWGQGTQVTVSS", "polyreactivity (PSR sort gate)": "high polyreactivity"}, {"sequence": "QVQLVESGGGLVQAGGSLRLSCAASGFIFADYAMGWYRQAPGKERELVAAITGRGTSTYYEDSVKGRFTISRDNAKNTVYLQMNSLKPEDTAVYLCAAAGTYYRHYKGYYRHLDYWGQGTQVTVSS", "polyreactivity (PSR sort gate)": "high polyreactivity"}, {"sequence": "QVQLVESGGGLVQAGGSLRLSCAASGFIFAEYAMGWSRQAPGQEREFVATINIGGSTYYADSVKGRFTISRDNAKNTVYLQMNSLKPEDTAVYYCAAEFWWGDGSQGIYDYDYWGQGTQVTVSS", "polyreactivity (PSR sort gate)": "low polyreactivity"}, {"sequence": "QVQLVESGGGLVQAGGSLRLSCAASGFIFAFYDIGWYRQAPGKERELVAAISWGGSTYYADSVKGRFTISRDNAKNTVYLQMNSLKPEDTAVYYCAARLSRSYRYGYWGQGTQVTVSS", "polyreactivity (PSR sort gate)": "high polyreactivity"}, {"sequence": "QVQLVESGGGLVQAGGSLRLSCAASGFIFAGNAMGWYRQAPGKERELVAAISGSGGSTYYADSVKGRFTISRDNAKNTVYLQMNSLKPEDTAVYYCNAVYYRYYDVEGFDYWGQGTQVTVSS", "polyreactivity (PSR sort gate)": "high polyreactivity"}, {"sequence": "QVQLVESGGGLVQAGGSLRLSCAASGFIFAGYPMGWYRQAPGKERELVAGITRNGGSTYYADSVKGRFTISRDNAKNTVYLQMNSLKPEDPAVYYCAATRYSFGPRRVDYWGQGTQVTVSS", "polyreactivity (PSR sort gate)": "high polyreactivity"}, {"sequence": "QVQLVESGGGLVQAGGSLRLSCAASGFIFAGYTMGWSRPAHGKERELVAAIRSSGGRTYYADSVKGRFTISRDNAKNTVYLQMYSMKPEDTAVDYCNAVVDRLIFWQFDYWGQGTQVTVSS", "polyreactivity (PSR sort gate)": "high polyreactivity"}, {"sequence": "QVQLVESGGGLVQAGGSLRLSCAASGFIFAKYAMGWYRQAPGKERELVAAITSGGSTNYADSVKGRFTISRDNAKNTVYLQMNSLKPEDTAVYYCNRGFDWWYRYRHYDYWGQGTQVTVSS", "polyreactivity (PSR sort gate)": "low polyreactivity"}, {"sequence": "QVQLVESGGGLVQAGGSLRLSCAASGFIFANYAKGWYRPAPGKERELVAAISSGGITYYADSVKGRFTISRDNAKNTVYLQMNSRKPEDTAVYYCACDVRYQDRSGEYHHWDGDYWGQGTQVTVTS", "polyreactivity (PSR sort gate)": "low polyreactivity"}, {"sequence": "QVQLVESGGGLVQAGGSLRLSCAASGFIFANYAMGWYRQAPGKERELVAAISTSGSSTYYADSVKGRFTISRDNAKNTVYLQMNSLKPEDTAVYYCNTYLTIWGYFYGYDYWGQGTQVTVSS", "polyreactivity (PSR sort gate)": "high polyreactivity"}, {"sequence": "QVQLVESGGGLVQAGGSLRLSCAASGFIFAQNAMGWYRQAPGKERELVAAISGSGGRTYYADSVKGRFTISRDNAKNTVYLQMNSLKPEDTAVYYCAAQSFSGYWGQGTQVTVSS", "polyreactivity (PSR sort gate)": "high polyreactivity"}, {"sequence": "QVQLVESGGGLVQAGGSLRLSCAASGFIFARNAMGWYRQAPGKERELVARITKRGGSTFYADSVKGRFTISRDNAKNTVYLQMNSLKPEDPAVYYCNADGYHGHVEGDYWGQGTQVTVSS", "polyreactivity (PSR sort gate)": "high polyreactivity"}, {"sequence": "QVQLVESGGGLVQAGGSLRLSCAASGFIFARYAMGWYRQAPGKERELVASITRRGGSTYYADSVKGRFTISRDNAKNTVYLQMNSLKPEDTAVYYCARPNLLSGDYWGQGTQVTVSS", "polyreactivity (PSR sort gate)": "high polyreactivity"}, {"sequence": "QVQLVESGGGLVQAGGSLRLSCAASGFIFASYAMGWYRQAPGKERELVAAISWRGGSTYYADSVKGRFTISRDNAKNTVYLQMNSLKPEDTAVYYCKAYVYVGTGRGYDTLDYWGQGTQVTVSS", "polyreactivity (PSR sort gate)": "low polyreactivity"}, {"sequence": "QVQLVESGGGLVQAGGSLRLSCAASGFIFATNAMGWYRQAPGKERELGASISSGDNTNYADSVKGRFTISRDNAKNTVYLQMNSLKPEHTAVYYCAAANKGPDQADYHYDQWGEYEYWGQGTQVTVSS", "polyreactivity (PSR sort gate)": "low polyreactivity"}, {"sequence": "QVQLVESGGGLVQAGGSLRLSCAASGFIFATYAMGWYRQAPGKERELVAAISRRGVRTNYADSVKGRFTISRDNAKNTVYLQMNSLKQEDTAVYYCNAQSHYGKIPMYYWGQGTQVTVSS", "polyreactivity (PSR sort gate)": "high polyreactivity"}, {"sequence": "QVQLVESGGGLVQAGGSLRLSCAASGFIFAYYAMGWYRQAAGKERELVAAITSDGSTYYADSVKGRFTISRDNAKNTVYLQMNSLKPEDTAVYYCNTYWVLRPGYNYWGQGTQVTVSS", "polyreactivity (PSR sort gate)": "high polyreactivity"}, {"sequence": "QVQLVESGGGLVQAGGSLRLSCAASGFIFAYYAMGWYRQAPGKERELVAAISKRGGSTYYADSVKGRFTISRDNAKNTVYLQMNSLKPEDTAVYYCAADGHGGYGYWGQGTQVTVSS", "polyreactivity (PSR sort gate)": "high polyreactivity"}, {"sequence": "QVQLVESGGGLVQAGGSLRLSCAASGFIFAYYAMGWYRQAPGKERELVAAITIDGSTNYADSVKGRFTISRDNAKNTVYLQMNSLKPEDTAVYYCAAADHPPVWYGYWGQGTQVTVSS", "polyreactivity (PSR sort gate)": "low polyreactivity"}, {"sequence": "QVQLVESGGGLVQAGGSLRLSCAASGFIFAYYVMGWYRQAPGKERELVAAITSRGGRTYYADSVKGRFTISRDNAKNTVYLQMNSLKPEDTAVYYCAAYRQLVNLREDYWGQGTQVTVSS", "polyreactivity (PSR sort gate)": "high polyreactivity"}, {"sequence": "QVQLVESGGGLVQAGGSLRLSCAASGFIFDAYVMGWYRQAPGKERELVAAITSSGGSTYYADSVKGRFTISRDNAKNTVYLQMNSLKPEDTAVYYCAATYWPWFVGYTYDLDYWGQGTQVTVSS", "polyreactivity (PSR sort gate)": "low polyreactivity"}, {"sequence": "QVQLVESGGGLVQAGGSLRLSCAASGFIFDDNAMGWYRQAPGKERELVAAITSGGGSTYYADSVKGRFTISRDNAKNTVYLQMNSLKQEDTAVYYCNAVPSQHDEFDSWGQGTQVTVSS", "polyreactivity (PSR sort gate)": "low polyreactivity"}, {"sequence": "QVQLVESGGGLVQAGGSLRLSCAASGFIFDDYARGWYRQAPGKERELVADIDYSGGSRYYADSVKGRFTISRDNAKNPVYLQMTSLKPEETAVYYGTAYYGILYYLLDYWGQGTQVTVSS", "polyreactivity (PSR sort gate)": "high polyreactivity"}, {"sequence": "QVQLVESGGGLVQAGGSLRLSCAASGFIFDGNAMGWYRQAPGKERELVAAIRSGGRPTYAPSVKGRFTSSRDNAKNTVDLQMNSLNPEDTAVYYCAARSIYPYYYRRDNRYYYWGQGTQVTVSS", "polyreactivity (PSR sort gate)": "high polyreactivity"}, {"sequence": "QVQLVESGGGLVQAGGSLRLSCAASGFIFDGYAMGWYRQAPGKERELVADISSVGSTYYADSVKGRFTISRDNAKNTVYLQMNSLKPEDTAVYYCAAVRFYTYNYWGQGTQVSVSS", "polyreactivity (PSR sort gate)": "low polyreactivity"}, {"sequence": "QVQLVESGGGLVQAGGSLRLSCAASGFIFDGYAMGWYSQAPGKERELVAAIDSGGDRTYYADSVKGRFTISRDNAKNTVYLQMNSLKPEDTAVYYCAADSSDPTGYDYWGQGTQVTVSS", "polyreactivity (PSR sort gate)": "low polyreactivity"}]}]}
